Results on two molecules are retold here after patent US20040002593A1 (BURNHAM INSTITUTE, published 2004).

The target of one data set is T1, ASC in pGilda (human, UniProt Q9ULZ3 1-195).
T1 construct: Yeast two-hybrid construct
As to the kind of experiment: yeast two-hybrid, Leu read-out. Here is the method:
(§1) Colonies were plated on both LEU+ and LEU− media and also used for a β-Gal-assay.

In the next data set the target is T2, ASC-CARD in pGilda (human, UniProt Q9ULZ3 107-195).
T2 construct: domain: CARD; Yeast two-hybrid construct; also called CARD domain of ASC
T2 sequence (looked up): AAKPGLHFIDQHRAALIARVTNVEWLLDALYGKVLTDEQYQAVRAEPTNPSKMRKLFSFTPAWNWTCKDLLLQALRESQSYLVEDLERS
The data set is described as follows: yeast two-hybrid, β-Gal read-out. On the procedure:
as §1

B1: ASC-CARD in pJG 4-5 (other, human, UniProt Q9ULZ3 107-195, looked up, not shown: large carriers)
chain: AAKPGLHFIDQHRAALIARVTNVEWLLDALYGKVLTDEQYQAVRAEPTNPSKMRKLFSFTPAWNWTCKDLLLQALRESQSYLVEDLERS
notes: domain: CARD; Yeast two-hybrid construct; also called CARD domain of ASC
Consider B1, for which the binding result with ASC in pGilda and with ASC-CARD in pGilda was “binds” throughout.

B2: endogenous IKKα (protein)
chain: MERPPGLRPGAGGPWEMRERLGTGGFGNVCLYQHRELDLKIAIKSCRLELSTKNRERWCHEIQIMKKLNHANVVKACDVPEELNILIHDVPLLAMEYCSGGDLRKLLNKPENCCGLKESQILSLLSDIGSGIRYLHENKIIHRDLKPENIVLQDVGGKIIHKIIDLGYAKDVDQGSLCTSFVGTLQYLAPELFENKPYTATVDYWSFGTMVFECIAGYRPFLHHLQPFTWHEKIKKKDPKCIFACEEMSGEVRFSSHLPQPNSLCSLVVEPMENWLQLMLNWDPQQRGGPVDLTLKQPRCFVLMDHILNLKIVHILNMTSAKIISFLLPPDESLHSLQSRIERETGINTGSQELLSETGISLDPRKPASQCVLDGVRGCDSYMVYLFDKSKTVYEGPFASRSLSDCVNYIVQDSKIQLPIIQLRKVWAEAVHYVSGLKEDYSRLFQGQRAAMLSLLRYNANLTKMKNTLISASQQLKAKLEFFHKSIQLDLERYSEQMTYGISSEKMLKAWKEMEEKAIHYAEVGVIGYLEDQIMSLHAEIMELQKSPYGRRQGDLMESLEQRAIDLYKQLKHRPSDHSYSDSTEMVKIIVHTVQSQDRVLKELFGHLSKLLGCKQKIIDLLPKVEVALSNIKEADNTVMFMQGKRQKEIWHLLKIACTQSSARSLVGSSLEGAVTPQTSAWLPPTSAEHDHSLSCVVTPQDGETSAQMIEENLNCLGHLSTIIHEANEEQGNSMMNLDWSWLTE
B2: the “TNFα-induced activation of endogenous IKKα (in vitro kinase assay, phosphorylation of GST-IKBα substrate by immunoprecipitated IKKα)” value with Myc-ASC-PAAD is “ASC-PAAD potently suppressed TNFα-induced activation of endogenous IKKα in these cells”.
